According to patent publication US20240400689A1 (ANTENGENE BIOLOGICS, published 2024):
Positions count from the first letter of the chain named.

T1: human CD276 protein (human, UniProt Q5ZPR3 29-534)
T1 construct: whole, on cells; for SKOV3 and the other cancer lines the protein is the cells' own; also called B7-H3; B7H3
T1 sequence (looked up): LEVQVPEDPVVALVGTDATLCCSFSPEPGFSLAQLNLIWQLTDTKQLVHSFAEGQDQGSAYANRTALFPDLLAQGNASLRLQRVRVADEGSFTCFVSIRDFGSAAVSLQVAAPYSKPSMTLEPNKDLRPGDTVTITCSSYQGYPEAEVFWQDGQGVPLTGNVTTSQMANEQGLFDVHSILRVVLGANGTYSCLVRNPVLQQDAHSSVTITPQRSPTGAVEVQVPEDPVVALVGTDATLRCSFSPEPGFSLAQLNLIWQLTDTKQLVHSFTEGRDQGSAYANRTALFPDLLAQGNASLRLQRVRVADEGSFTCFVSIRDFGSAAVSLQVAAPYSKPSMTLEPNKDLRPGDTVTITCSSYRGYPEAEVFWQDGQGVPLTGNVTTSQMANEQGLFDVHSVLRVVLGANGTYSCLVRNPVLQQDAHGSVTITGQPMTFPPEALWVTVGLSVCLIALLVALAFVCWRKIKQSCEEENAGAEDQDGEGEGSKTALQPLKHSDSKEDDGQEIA

T2: mouse CD276 protein (mouse, UniProt Q8VE98 29-316)
T2 construct: whole, on cells; also called mCD276; CHO-S-mCD276
T2 sequence (looked up): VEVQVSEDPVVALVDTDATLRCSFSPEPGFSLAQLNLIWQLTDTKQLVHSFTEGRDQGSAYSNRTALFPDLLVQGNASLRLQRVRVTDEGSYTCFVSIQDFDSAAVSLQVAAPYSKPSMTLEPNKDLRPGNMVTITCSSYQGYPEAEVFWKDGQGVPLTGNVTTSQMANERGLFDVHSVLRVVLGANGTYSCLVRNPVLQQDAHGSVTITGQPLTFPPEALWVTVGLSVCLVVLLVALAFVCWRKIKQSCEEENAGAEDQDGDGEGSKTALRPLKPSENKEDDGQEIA

B1: 8-C3-E3-F3 (antibody, V domains shown)
VH: EVQLVESGGGLVQPGGSLKLSCAASGFTFSNYGLSWVRLTPDKRLEVVATIGSYGGNTYYPDSVKGRFTISRDNAKNTLYLQMSSLKSEDTAIYYCARDIYYGNSEAWFAYWGQGTLVTVSA
VL: DIVMTQAAFSNPVTLGTSASISCRSSKSLLHSNGITYLYWYLQKPGQSPQLLIYQMSNLASGVPDRFSSSGSETDFTLRISRVEAEDVGVYYCAQNLELPWTFGGGTKLEIK
notes: mouse monoclonal antibody (hybridoma)
B2: 20-C5-D7-D3 (antibody, V domains shown)
VH: EVQLVESGGDLVKPGGSLKLSCAASGFTFRSYGMSWVRQTPDKRLEWVATISGGGNYTYYPDSVKGRFTISRDNAKNTLYLQMSSLKSEDTAMYYCARHEGLPLDYWGQGTTLTVSS
VL: DIQMTQSPASLSASVGETVTITCRASENIYSYLAWYQQKQGKSPQLLVYNAKTLAEGVPSRFSGSGSGTQFSLKINSLQPEDFGNFYCQHHYGTPTWTFGGGTKLEIK
notes: as for B1
B3: 13-E4-G9-A4 (antibody, V domains shown)
VH: EVMLVESGGGLVKPGGSLKFSCAASGFTFITYAMSWVRQTPEKRLEWVATISGGGIDTYYPDSVKGRFTISRDNAKNTLYLQVNSLRSEDTAMYYCTRQGSQGWGAMDYWGQGTSVTVSS
VL: QIVLTQSPPIMSASPGERVTMTCRASSRVSFMHWYQQKSGTSPRRWIYETSKLASGVPDRFSGSVSGTSYSLTISSMEAEDAATYYCQQWSSNPLTFGAGTKLELK
notes: as for B1
B4: 25-C8-D7-C5 (antibody, V domains shown)
VH: B3 VH with M3Q, V5Q, I30S, V83M, T97A, Q102K
VL: B3 VL with P9A, R18K, R28S, R44K, V65G
notes: as for B1
B5: 30-E2-G7-G7 (antibody, V domains shown)
VH: EVQLQESGGGLVKPGGSLKLSCAASGFTFSYYAMSWVRQTPEKRLEWVATINGDGSHTYYPDSVRGRFTISRDNAKNTLYLQVSSLRSEDTAMYYCASLLQLGPFWGQGTTLTVSS
VL: DIVMTQSQKFMSTSVGDRVSVTCKASQNVGTNVAWYHQRPGQSPKPLIYSASYRYSGVPDRFTGSGSGTDFTLTISNVQSEDLAEYFCQQYNNYPLTFGSGTKLEIK
notes: as for B1
B6: 20-F8-B5-G2 (antibody, V domains shown)
VH: EVQLQESGPSLVKPSQTLSLTCSVTGDSITSAYWNWIRKFPGNKLEYMGYISNSGSTYYNPSLKSRISITRDTSKNQYYLQLNSVTTEDTGTYYCVRGERYYGYGAYWGQGTLVTVSA
VL: DIVMTQATPSVPVTPGESISISCRSSKSLLHSNGNTYLYWFLQRPGQSPQLLIYRMSNLASGVPDRFSGSGSGTAFTLRISRVEAEDVGVYYCMQHLEYPFTFGAGTKLELK
notes: as for B1
B7: 9-B9-H11-G7 (antibody, V domains shown)
VH: DVQLQESGPGLVKPSQSLSLTCSVTGYSITSGYYWNWIRQFPGNKLEWMVYISYDGTNNYNPSLKNRISITRDTSKNQFFLKLNSVTTEDTATYYCARGDSNSYYFDYWGQGTTLTVSS
VL: QAVVTQESALTTSPGGTVILTCRSSTGAVTTSNYANWVQEKPDHLFTGLIGGTSNRAPGVPVRFSGSLIGDKAALTITGAQTEDDAMYFCALWYRTHYVFGGGTKVTVL
notes: as for B1
B8: 9-G12-D6-A11 (antibody, V domains shown)
VH: B7 VH with E6V, T25A, G32D, V50G, N77G, L83F, D100K, S101D, N102G
VL: B7 VL with K105M
notes: as for B1
B9: 30-C7-C11-D4 (antibody, V domains shown)
VH: EVQLVESGPGLVKPSQSLSLTCTVTGYSITSDYAWNWIRQFPGNKLEWMGYISHSGSTSYNPSLKSRISITRDTSKNQFFLQLNSVTTEDTATYYCARSLGRRWYFDVWGAGTTVTVSS
VL: DIVMTQSPSSLAMSVGQKVTLSCKSSQSLLNSSTQKNYLAWYQQKPGQSPKLLVYFASTRDSGVPDRFIGSGSGTEFTLTISSVQAEDLADYFCQQHYIIPFTFGAGTKLEIK
notes: as for B1
B10: 10-G6-C4-B2 (antibody, V domains shown)
VH: EVQLVESGGGLVQPGGSLRLSCATSGFTLSDYYMSWVRQPPGKAPEWLGFMRNKANGYTTEYSASVRGRFTISRDTSQSIIYLQMNTLRAEDGATYYCVRDRDGRPFAYWGQGTLVTVSA
VL: DIVMTQSPSSLTVTAGEKVTMSCKSSQSLLNSINQKNFLTWYQQKPGQPPKLLIYWASTRESGVPDRFTGSGSGTDFTLTISSVQAEDLAIYYCQNDYTYPLTFGTGTKLELK
notes: as for B1
B11: 10-B9-D10-A12 (antibody, V domains shown)
VH: EVQLQESGPELVRPGVSVKISCKGSGYTFTDYTMHWVKLSHAKSLEWIGVISTYYGNTNYNQKFKGKATLTVDKSSSTAYMELARLTSEDSAIYYCARASYGSGYGPYYWYFDVWGAGTTVTVSS
VL: DIQMTQSPASLFASVGETVTITCRASEKIYSYLAWYFQKQGKSPQFLVYNANALAEGVPSRFSGSGSGTQFSLKINSLQPEDFGTYYCQHHYGTPVTFGAGSKLELK
notes: as for B1
B12: 15-G1-D1-E3 (antibody, V domains shown)
VH: QVQLQQPGAELVKPGTSVKLSCKASGYTFTSYWIHWVKQRPGQGLEWIGMIHPKSGTVDYNEKFKSKATLTADKSSNTAYMQLSSLTSEASVVYYCARGENYDYRPQFVYWGQGTLVTVSA
VL: QLVLTQSSSASFSLGASAKLTCTLSSQHSTYTIEWYQQQPLKPPKYVMELKKDGSHRTGDGIPDRFSGSSSGADRYLSISNIQPEDEAIYICGVGDTIKEQFVYVFGGGTKVTVL
notes: as for B1
B13: 8-B4-F5-E11 (antibody, V domains shown)
VH: QVQLQQPGAELVKPGASVKLSCKASGDTFTSYWMHWVKQRPGQGLEWIGMIHPDSGTRNYNEKVMSKATLNVDKSSSTAYLHLSSLTSEDSAVYYCSRSYGSRLAWFAYWGQGTLVTVSA
VL: QAVVTQESALTTSPGETVTLTCRSSTGAVTTSNFANWVQEKPDHLFTGLIGGTNNRAPGVPARFSGSLIGDKAALTITGAQTEDEAVYFCALWYTNHFIFGSGTKVTVL
notes: as for B1
B14: 6-H11-G5-D8 (human IgG1 chimeric antibody) (antibody, V domains shown)
VH: EVQLQESGPELVKPGTSVKLSCKASGYTFTSYDINWVRQRPEQGLEWIGWIFPGNGDTYYNEKFKGKATLTSDKSSSTAYMQLSRLTSEDSAVYFCARDLRLGTFDYWGQGTTLTVSS
VL: QIVLTQSPEIMSASPGEKVTMTCSASSSVSYIHWYQQKSGTSPKRWIYDTSKLASGVPARFSGSGSGTSYSLTIRSMEAEDAATYYCQQGSSNPRTFGGGTKLELK
notes: human IgG1 chimeric antibody of the mouse clone

What was measured:
[1] = target: T3, Macaca fascicularis CD276 (Macaca fascicularis); assay: FACS on CHO-S-cynoCD276 cells
T3 construct: whole, on cells; also called cynomolgus monkey CD276; cynoCD276
Description: (§1) Screening & Expansion—The subcloning plates were screened by protein or cell-based Elisa, and the subclones with good binding ability were expanded to 24-wells for confirmation tests. The specificity and cross-reactivity of these subclones were confirmed with FACS analysis. Briefly, parental CHO-S cells, CHO-S-hCD276, CHO-S cell line stably over-expressing Macaca fascicularis CD276, CHO-K1 S, cell line stably over-expressing mouse CD276 were incubated with antibodies produced by each subclone respectively. Fluorescent dye-conjugated secondary antibody was used to detect the binding of the primary antibody with the cells. Median fluorescence intensity was measured by FACS analysis.

[2] = target: T1, human CD276 protein; assay: FACS on CHO-S-hCD276 cells
Description: as §1

[3] = target: T2, mouse CD276 protein; assay: FACS on CHO-S-mCD276 cells
Description: as §1

[4] = target: T1, human CD276 protein; assay: FACS on SKOV3 cells
From the text: Sequences of 31 mouse antibodies from Table 5 were selected to generate and produce human IgG1 chimeric antibodies. The binding affinity of these antibodies and bench mark antibody, Enoblituzumab (see U.S. Pat. No. 8,802,091, MGA271, specifically with a construct designated as hBRCA84D-2) and MGC018 (an antibody-drug-conjugate, in which the mAb MGA017 (human IgG1) is conjugated via a cleavable linker to the prodrug seco-DUocarmycin hydroxyBenzamide Azaindole (DUBA), an alkylating agent that can damage DNA in both dividing and non-dividing cells, thereby causing cell death) with human patient derived ovarian cancer cell line, SKOV3, was determined by FACS analysis.
1. Digested cells using Trypsin (1×); Centrifuged the harvested cells at 300 g for 3 min and discarding the supernatant. […] 2. Washed the cells 2 times with FACS buffer by centrifuging at 300 g for 3 min and discarding the supernatant. [0445] 3. […] Kept the cells in dark for FACS analysis.

Binder	FACS MFI [1]	FACS MFI [2]	FACS MFI [3]	EC50 [4] [µg/mL]	MFI (Max) [4]
B1	12100	63900	1320	–	–
B2	13200	77000	1340	–	–
B3	16800	149000	1370	–	–
B4	39100	148000	1160	–	–
B5	35100	47000	1300	–	–
B6	51100	88800	67000	–	–
B7	146000	96800	1360	–	–
B8	35700	53200	1420	–	–
B9	96300	138000	8220	–	–
B10	4320	5650	17400	–	–
B11	10100	400000	–	–	–
B12	99400	62500	6610	–	–
B13	58600	40400	7370	–	–
B14	–	–	–	1.78	200
